Measurements published in paper PMC5430537, “The tarantula toxin β/δ-TRTX-Pre1a highlights the importance of the S1-S2 voltage-sensor region for sodium channel subtype selectivity” (Scientific Reports, 2017).
Bridge positions count the residues as written; N and C are the ends. Peptide text beside a SMILES is read from it.

Columns and labels:
[1] = molecular target: T1, hNaV1.1 (Homo sapiens, UniProt P35498); details: hNaV1.3 and hNaV1.1 peak current; cited from earlier work
Description: (§1) NaV channel fast inactivation is controlled by the movement of the DIV voltage-sensing domain[17]. […] However, all these peptides share less than 50% similarity with Pre1a (See Fig. 1d) and have very differ ...

[2] = tested on: hNaV1.3; details: hNaV1.3 and hNaV1.1 peak current; cited from earlier work
Description: as §1

[3] = molecular target: human NaV1.1 α-subunit (in HEK293 cells) (human) (UniProt P35498)
[4] = molecular target: human NaV1.6 α-subunit (in HEK293 cells) (human) (UniProt Q9UQD0)
[5] = molecular target: human NaV1.7 α-subunit (in HEK293 cells) (human) (UniProt Q15858)
[6] = molecular target: human NaV1.1 α-subunit (in HEK293 cells) (human) (UniProt P35498); remark: listed apart in the source
[7] = molecular target: human NaV1.7 α-subunit (in oocytes) (human) (UniProt Q15858)
[8] = molecular target: rat NaV1.2 α-subunit (rat) (UniProt P04775)
[9] = molecular target: rat NaV1.3 α-subunit (rat) (UniProt P08104)
[10] = molecular target: KV2.1 chimaera with the S3-S4 linker region of hNaV1.7 DII
[11] = molecular target: KV2.1 chimaera with the S3-S4 linker region of hNaV1.7 DIV
[12] = tested on: NaV1.7 VSD IV; details: cited from earlier work
Description: as §1

[13] = tested on: NaV channels; details: cited from earlier work
Description: These VSD modulating peptides have been described to modify channel gating in three distinct ways depending on the domain they target and the effect on that domain[17]. Domain IV of the NaV channel α-subunit uniquely controls inactivation of the channel, thus spider peptides that interact with and hinder the normal function of VSDIV slow or inhibit fast inactivation of the channel and may result in persistent current. Conversely, spider venom peptides that interact with DI, DII, and DIII VSD modulate channel activation. Most of those discovered to date cause a shift in the voltage- ... || NaV channel fast inactivation is controlled by the movement of the DIV voltage-sensing domain[17]. […] However, all these peptides share less than 50% similarity with Pre1a (See Fig. 1d) and have very differ ...

[14] = tested on: NaV channel DII; details: mutagenesis; cited from earlier work
Description: The striking differences in effects on NaV1.1, 1.2 and 1.3 are of particular significance for understanding the molecular basis of Pre1a’s subtype selectivity as these three channels have essentially identical S3-S4 linker regions in both DII and DIV (Fig. 7a) (note that NaV1.1 DII S3-S4 has an M to V ...

[15] = molecular target: T2, rNaV1.2 (Rattus norvegicus, UniProt P04775); assay: Two-electrode voltage clamp, rNaV1.2 expressed in Xenopus oocytes; type: cell-based; details: α-subunit alone, clamped at −90 mV, 50 ms step to −10 or 0 mV, recombinant Pre1a, n ≥ 5, read-out: peak current inhibition IC50
T2 construct: expressed in transfected cells; host or cells: Xenopus laevis oocytes (cRNA injection, alpha subunit alone)
Description: (§2) The preparation and injection of Xenopus laevis oocytes and NaV channel recordings using two-electrode voltage-clamp (TEVC) were carried out as described previously. Capped cRNA encoding rat NaV1.2, NaV1.3 and NaV1.4, and human NaV1.5 and NaV1.7 were injected at 20–40 ng of cRNA/oocyte and kept at 17–18 °C in ND96 solution containing (in mM) 96 NaCl, 2 KCl, 1 CaCl2, 2 MgCl2, 5 HEPES, 5 pyruvic acid, 50 µg/ml gentamicin (pH 7.4), and horse serum (2.5%). Membrane currents were recorded 2–5 days after injection. Oocytes were clamped at −90 mV and currents were elicited by a 50 ms depolarising step to −10 or 0 mV every 10 s for concentration response curves. Both peak and late current (50 ms post peak) were analysed. The concentration response curves were fitted to the Hill equation (GraphPad Prism 6). Current-voltage (I-V) relationships and voltage-dependence of fast inactivation were determined using a family of 100 ms conditioning pulses from −100 mV to +50 mV (+60 mV for rNaV1.3) in 5 mV steps, followed by a test depolarisation step to 0 mV with a 20 s sweep interval from a holding potential of −90 mV. […] The half-activation potential (V 1/2) was determined using a Boltzmann fit (GraphPad Prism 6). […]

[16] = molecular target: T3, rNaV1.3 (Rattus norvegicus, UniProt P08104); assay: Two-electrode voltage clamp, rNaV1.3 expressed in Xenopus oocytes; type: cell-based
T3 construct: expressed in transfected cells; host or cells: Xenopus laevis oocytes (cRNA injection, alpha subunit alone)
Description: We analysed the rate of fast inactivation (defined as tau, τinact, or the time to reach 36.8% of a single exponential fit of the current decay) and the degree of persistent sodium current measured at 50 ms of depolarisation (NaV1.2 and 1.7) and 100 ms for rNaV1.3 due to the longer time required to reach complete inactivation in the oocyte expression system without β1.
The preparation and injection of Xenopus laevis oocytes and NaV channel recordings using two-electrode voltage-clamp (TEVC) were carried out as described previously. Capped cRNA encoding rat NaV1.2, NaV1.3 and NaV1.4, and human NaV1.5 and NaV1.7 were injected at 20–40 ng of cRNA/oocyte and kept at 17–18 °C in ND96 solution containing (in mM) 96 NaCl, 2 KCl, 1 CaCl2, 2 MgCl2, 5 HEPES, 5 pyruvic acid, 50 µg/ml gentamicin (pH 7.4), and horse serum (2.5%). Membrane currents were recorded 2–5 days after injection. Oocytes were clamped at −90 mV and currents were elicited by a 50 ms depolarising step to −10 or 0 mV every 10 s for concentration response curves. Both peak and late current (50 ms post peak) were analysed. The concentration response curves were fitted to the Hill equation (GraphPad Prism 6). Current-voltage (I-V) relationships and voltage-dependence of fast inactivation were determined using a family of 100 ms conditioning pulses from −100 mV to +50 mV (+60 mV for rNaV1.3) in 5 mV steps, followed by a test depolarisation step to 0 mV with a 20 s sweep interval from a holding potential of −90 mV. To determine the voltage-dependence of activation non-normalised peak current was used from the I-V family to calculate channel conductance using the equation: G(V) = I/(V − V rev), in which I, V, and V rev represent inward NaV current, test potential, and reversal potential, respectively. The half-activation potential (V 1/2) was determined using a Boltzmann fit (GraphPad Prism 6). All data points are shown as the pIC50 ± S.E.M., as well as the IC50. Replicates (n) represent separate experimental oocytes. Pre1a was resuspended in ND96 solution containing 0.1% bovine serum albumin for all activity analysis. […]

[17] = molecular target: T1, hNaV1.1; assay: QPatch automated patch clamp, HEK293 cells stably co-expressing hNaV1.1 and NaVβ1; type: cell-based; details: HEK
Description: (§3) For patch clamp analysis, HEK293 cells stably co-expressing the hNaV1.1, hNaV1.6, or hNaV1.7 α-subunit with the NaVβ1-subunit (SB Drug Discovery) were cultured following manufacturer guidelines. Cells were removed from culture at 70% confluency using Detachin (Genlantis) and resuspended to 5 × 10^6 cells/mL in Ex-Cell ACF CHO Medium (Life Technologies) supplemented with 25 mM HEPES (Sigma-Aldrich) and 1 × Glutamax (Life Technologies) before being transferred to the Q-Patch Q-Stirrer and allowed to recover for 30 min before assay.
(§4) The external solution contained (in mM): 140 NaCl, 4 KCl, 2 CaCl2, 1 MgCl2, 10 HEPES, 20 TEA-Cl, 10 glucose, pH 7.4 (with NaOH) and adjusted to 315 mOsm 0.05% BSA was added to prevent adsorptive loss of peptide. The intracellular solution contained (in mM): 140 CsF, 1/5 EGTA/CsOH, 10 HEPES and 10 NaCl, pH 7.4 (with CsOH) and adjusted to 320 mOsm. Whole-cell patch-clamp experiments were performed at room temperature on a QPatch-16 automated electrophysiology platform (Biolin Scientific) using 16-channel planar patch chip plates (Q-Plates) with a patch hole diameter of 1 µm and resistance of 2 ± 0.1 MΩ. […] Pre1a concentrations were incubated for a fixed time of 5–10 min to allow steady-state activity, monitored by the I-T plot.

[18] = molecular target: hNaV1.6 (Homo sapiens, UniProt Q9UQD0); assay: QPatch automated patch clamp, HEK293 cells stably co-expressing hNaV1.6 and NaVβ1; type: cell-based; details: HEK, with NaVβ1, QPatch16, 5–10 min incubation, holding −100 mV; n ≥ 6; read-out: peak current inhibition IC50
Description: as §3, §4

[19] = molecular target: T4, hNaV1.7 (Homo sapiens, UniProt Q15858); assay: QPatch automated patch clamp, HEK293 cells stably co-expressing hNaV1.7 and NaVβ1; type: cell-based
Description: as §3, §4

[20] = molecular target: T4, hNaV1.7; assay: Two-electrode voltage clamp, hNaV1.7 expressed in Xenopus oocytes; type: cell-based; set-up: expressed in transfected cells; host or cells: Xenopus laevis oocytes (cRNA injection, alpha subunit alone)
Description: as §2

[21] = molecular target: human NaV1.5 α-subunit (human) (UniProt Q14524)
[22] = molecular target: human NaV1.7 α-subunit (in oocytes) (human) (UniProt Q15858); remark: listed apart in the source
[23] = molecular target: rat NaV1.2 α-subunit (rat) (UniProt P04775); remark: listed apart in the source
[24] = molecular target: rat NaV1.3 α-subunit (rat) (UniProt P08104); remark: listed apart in the source
[25] = molecular target: rat NaV1.4 α-subunit (rat) (UniProt P15390)
[26] = molecular target: rat NaV1.3 α-subunit (rat) (UniProt P08104); remark: listed apart in the source
[27] = molecular target: rat NaV1.3 α-subunit (rat) (UniProt P08104); remark: listed apart in the source

Chain of rat NaV1.3 α-subunit (rat) (P08104 whole entry): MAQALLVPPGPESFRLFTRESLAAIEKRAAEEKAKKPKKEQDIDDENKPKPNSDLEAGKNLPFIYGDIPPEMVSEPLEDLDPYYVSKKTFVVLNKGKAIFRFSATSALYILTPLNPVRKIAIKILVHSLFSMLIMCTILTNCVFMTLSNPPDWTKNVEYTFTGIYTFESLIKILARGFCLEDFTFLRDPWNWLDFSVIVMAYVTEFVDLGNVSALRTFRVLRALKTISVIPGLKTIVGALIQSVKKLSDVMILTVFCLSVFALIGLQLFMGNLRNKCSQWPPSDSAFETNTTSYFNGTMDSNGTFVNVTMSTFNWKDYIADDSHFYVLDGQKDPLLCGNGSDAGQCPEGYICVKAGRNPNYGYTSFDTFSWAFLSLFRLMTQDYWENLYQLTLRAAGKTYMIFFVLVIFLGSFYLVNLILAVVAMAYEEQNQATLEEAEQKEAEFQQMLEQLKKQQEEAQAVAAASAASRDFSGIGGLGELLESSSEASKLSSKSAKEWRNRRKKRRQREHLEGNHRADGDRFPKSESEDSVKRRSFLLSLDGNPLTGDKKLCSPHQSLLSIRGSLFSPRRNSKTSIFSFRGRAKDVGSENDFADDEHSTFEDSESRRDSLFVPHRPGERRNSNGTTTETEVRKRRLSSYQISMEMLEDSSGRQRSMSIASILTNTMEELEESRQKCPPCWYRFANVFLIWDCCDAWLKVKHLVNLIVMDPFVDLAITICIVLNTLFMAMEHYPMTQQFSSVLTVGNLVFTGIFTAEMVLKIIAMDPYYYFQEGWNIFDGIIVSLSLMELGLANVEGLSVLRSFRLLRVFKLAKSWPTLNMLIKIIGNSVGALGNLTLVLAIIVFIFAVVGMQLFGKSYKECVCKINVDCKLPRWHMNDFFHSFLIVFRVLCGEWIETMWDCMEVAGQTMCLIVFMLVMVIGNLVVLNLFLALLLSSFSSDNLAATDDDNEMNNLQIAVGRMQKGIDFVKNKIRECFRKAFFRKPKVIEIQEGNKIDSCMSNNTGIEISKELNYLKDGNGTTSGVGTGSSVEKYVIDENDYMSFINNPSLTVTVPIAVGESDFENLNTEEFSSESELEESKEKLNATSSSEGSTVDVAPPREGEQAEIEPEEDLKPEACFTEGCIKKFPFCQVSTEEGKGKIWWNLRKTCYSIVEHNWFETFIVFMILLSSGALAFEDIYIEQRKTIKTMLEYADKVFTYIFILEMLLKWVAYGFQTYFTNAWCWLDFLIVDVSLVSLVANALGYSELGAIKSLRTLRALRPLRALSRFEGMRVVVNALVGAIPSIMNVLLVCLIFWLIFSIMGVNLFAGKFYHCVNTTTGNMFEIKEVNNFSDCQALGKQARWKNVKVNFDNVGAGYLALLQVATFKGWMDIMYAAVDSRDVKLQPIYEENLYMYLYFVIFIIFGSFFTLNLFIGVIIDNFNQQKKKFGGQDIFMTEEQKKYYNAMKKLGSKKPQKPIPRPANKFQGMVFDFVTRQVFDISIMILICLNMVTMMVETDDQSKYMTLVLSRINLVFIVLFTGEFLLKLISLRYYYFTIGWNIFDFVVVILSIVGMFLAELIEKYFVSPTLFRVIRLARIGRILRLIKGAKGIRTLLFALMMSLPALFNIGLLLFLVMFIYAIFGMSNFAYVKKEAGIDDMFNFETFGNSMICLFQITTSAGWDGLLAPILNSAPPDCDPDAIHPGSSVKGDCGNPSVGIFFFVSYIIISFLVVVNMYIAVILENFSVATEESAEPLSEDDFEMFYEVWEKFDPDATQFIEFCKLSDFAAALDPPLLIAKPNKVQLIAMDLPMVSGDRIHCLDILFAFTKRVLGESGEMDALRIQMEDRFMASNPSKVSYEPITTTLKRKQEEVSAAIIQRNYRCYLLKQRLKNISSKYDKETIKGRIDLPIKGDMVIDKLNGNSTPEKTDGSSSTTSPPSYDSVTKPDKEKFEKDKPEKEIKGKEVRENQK
T3 sequence (P08104 whole entry): as above
Chain of rat NaV1.2 α-subunit (rat) (P04775 whole entry): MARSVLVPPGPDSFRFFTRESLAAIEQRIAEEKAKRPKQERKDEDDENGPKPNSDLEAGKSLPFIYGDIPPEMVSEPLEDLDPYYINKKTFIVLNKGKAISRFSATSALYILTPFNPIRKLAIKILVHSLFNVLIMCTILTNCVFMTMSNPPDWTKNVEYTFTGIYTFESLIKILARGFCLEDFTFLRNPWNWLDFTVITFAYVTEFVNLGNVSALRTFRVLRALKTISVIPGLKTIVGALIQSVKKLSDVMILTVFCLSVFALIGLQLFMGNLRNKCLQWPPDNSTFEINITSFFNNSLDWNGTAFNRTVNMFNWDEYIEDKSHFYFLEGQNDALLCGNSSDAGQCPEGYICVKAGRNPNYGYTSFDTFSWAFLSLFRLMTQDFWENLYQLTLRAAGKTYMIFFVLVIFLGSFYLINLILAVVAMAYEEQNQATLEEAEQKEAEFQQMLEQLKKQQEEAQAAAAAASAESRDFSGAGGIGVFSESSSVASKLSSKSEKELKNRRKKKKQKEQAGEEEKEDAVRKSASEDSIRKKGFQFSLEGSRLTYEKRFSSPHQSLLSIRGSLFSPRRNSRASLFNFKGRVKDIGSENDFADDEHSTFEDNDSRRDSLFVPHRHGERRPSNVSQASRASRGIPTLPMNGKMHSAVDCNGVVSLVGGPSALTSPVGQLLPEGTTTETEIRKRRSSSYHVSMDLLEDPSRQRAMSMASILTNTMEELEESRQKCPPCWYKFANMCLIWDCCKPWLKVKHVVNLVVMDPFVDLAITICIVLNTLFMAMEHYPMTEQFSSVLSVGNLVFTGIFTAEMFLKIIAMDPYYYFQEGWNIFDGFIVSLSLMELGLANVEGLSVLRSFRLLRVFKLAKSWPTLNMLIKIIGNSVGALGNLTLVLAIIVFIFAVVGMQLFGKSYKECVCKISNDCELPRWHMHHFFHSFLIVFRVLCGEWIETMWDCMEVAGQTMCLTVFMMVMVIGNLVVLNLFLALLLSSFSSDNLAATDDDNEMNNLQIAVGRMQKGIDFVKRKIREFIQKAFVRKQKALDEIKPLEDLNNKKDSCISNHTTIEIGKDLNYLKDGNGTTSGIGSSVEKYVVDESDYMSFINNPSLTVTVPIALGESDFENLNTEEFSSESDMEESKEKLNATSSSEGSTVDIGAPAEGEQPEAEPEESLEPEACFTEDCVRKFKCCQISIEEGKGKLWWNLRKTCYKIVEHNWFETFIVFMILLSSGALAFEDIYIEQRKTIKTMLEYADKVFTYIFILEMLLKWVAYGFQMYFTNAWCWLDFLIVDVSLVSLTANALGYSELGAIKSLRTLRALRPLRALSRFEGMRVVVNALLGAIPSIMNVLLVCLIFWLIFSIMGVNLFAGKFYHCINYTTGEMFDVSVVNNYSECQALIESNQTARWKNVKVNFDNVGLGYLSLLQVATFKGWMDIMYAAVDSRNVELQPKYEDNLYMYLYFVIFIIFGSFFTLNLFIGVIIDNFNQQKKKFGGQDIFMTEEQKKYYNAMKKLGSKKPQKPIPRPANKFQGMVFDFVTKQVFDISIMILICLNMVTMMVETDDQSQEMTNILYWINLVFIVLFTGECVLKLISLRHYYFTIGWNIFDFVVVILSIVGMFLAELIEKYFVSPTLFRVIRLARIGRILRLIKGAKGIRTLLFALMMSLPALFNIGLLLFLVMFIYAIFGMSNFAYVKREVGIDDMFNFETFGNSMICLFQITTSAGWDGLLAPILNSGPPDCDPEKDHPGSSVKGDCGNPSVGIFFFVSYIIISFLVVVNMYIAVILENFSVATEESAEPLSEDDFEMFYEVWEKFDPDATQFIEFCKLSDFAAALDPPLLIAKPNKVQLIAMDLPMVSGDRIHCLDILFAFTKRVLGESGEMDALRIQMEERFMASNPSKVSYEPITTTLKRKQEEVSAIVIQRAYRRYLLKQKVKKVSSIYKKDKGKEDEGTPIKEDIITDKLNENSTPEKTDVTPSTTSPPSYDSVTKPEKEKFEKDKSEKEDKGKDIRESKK
T2 sequence (P04775 whole entry): as above

In the case of `O=C(Nc1ccc(S(=O)(=O)Nc2nccs2)cc1)C(c1ccccc1)c1ccccc1` [ICA-121431], the selectivity [1] is given as ~ 1000 fold and the selectivity [2] is given as ~ 1000 fold.
Compound “β/δ-TRTX-Pre1a (synthetic or recombinant not stated for the experiment) (peptide)” has an IC50 of inhibition of peak current, QPatch16 automated patch clamp, HEK cells [3] of 57.1 nM, an IC50 of inhibition of peak current, QPatch16 automated patch clamp, HEK cells [4] of 222 nM and an IC50 of inhibition of peak current, QPatch16 automated patch clamp, HEK cells [5] of 15 nM. The EC50 of inhibition of fast inactivation (late current at 10 ms from peak), QPatch, HEK cells [6] was 41.4 nM, the shift of the V1/2 of activation by 1 µM Pre1a, Xenopus oocytes [7] was 13.8 mV and the shift of the V1/2 of activation by 1 µM Pre1a, Xenopus oocytes [8] was 14.9 mV. For the same compound, the shift of the V1/2 of activation of the late current by 1 μM Pre1a, Xenopus oocytes [9] was 9.6 mV, the percent inhibition of outward (peak) current by 1 μM Pre1a [10] was 44% and the percent inhibition of outward (peak) current by 1 μM Pre1a [11] was 27.1%.
For `CCN1CC(n2nccc2-c2cc(C(F)(F)F)ccc2Oc2ccc(S(=O)(=O)Nc3ncns3)cc2C#N)C1` [GX-936], the “state in which VSD is arrested” value [12] is given as “arrests the VSD in the inactivated state”.
For ProTx-II: spider peptide, the “effect on peak current and fast inactivation” value [13] is listed as “inhibit both peak current and fast inactivation of NaV channels”.
For HwTxIV, the “effect of divergent residues in S2 region 1 on activity” value [14] is given as “little effect on the activity”.
In the case of `CC[C@H](C)[C@H](NC(=O)[C@H](CCCCN)NC(=O)[C@H](Cc1ccc(O)cc1)NC(=O)[C@H](CCCCN)NC(=O)[C@@H]1CSSC[C@@H]2NC(=O)[C@H](CCCCN)NC(=O)[C@H](CC(=O)O)NC(=O)[C@H](CC(N)=O)NC(=O)[C@H](CCCCN)NC(=O)[C@@H]3CCCN3C(=O)[C@H](CO)NC(=O)[C@@H]3CSSC[C@H](NC(=O)[C@H](CCCCN)NC(=O)[C@H](Cc4ccc(O)cc4)NC(=O)[C@H](CC(N)=O)NC(=O)[C@@H]4CCCN4C(=O)[C@H](CSSC[C@H](NC(=O)[C@H](CC(=O)O)NC(=O)[C@@H](N)CCC(=O)O)C(=O)N[C@@H](CC(C)C)C(=O)NCC(=O)N[C@@H](Cc4c[nH]c5ccccc45)C(=O)N[C@@H](Cc4ccccc4)C(=O)N[C@@H](CO)C(=O)N[C@@H](CCCNC(=N)N)C(=O)N3)NC2=O)C(=O)N[C@@H](CO)C(=O)N[C@@H](CO)C(=O)N[C@@H](CCCCN)C(=O)N[C@@H](CC(=O)O)C(=O)N[C@@H](CC(C)C)C(=O)N[C@@H](Cc2c[nH]c3ccccc23)C(=O)N1)C(=O)N[C@@H](Cc1c[nH]c2ccccc12)C(=O)O` [Pre1a] (H-EDCLGWFSRCSPKNDKCCPNYKCSSKDLWCKYKIW-OH; disulfide 3-18, 10-23, 17-30), the IC50 [15] is reported as 190 nM, the EC50 ([16]; late current at 100 ms, ± S.E.M.) is reported as 45.7 nM and the “selectivity for inhibiting inactivation over activation” value ([16]; rNaV1.3 inactivation vs activation) is reported as “more than 150 fold”. The IC50 ([16]; recombinant Pre1a, ± S.E.M., read-out: peak current inhibition pIC50 (converted)) was 7940 nM, the IC50 ([17]; QPatch16, read-out: peak current inhibition pIC50 (converted)) was 57.5 nM and the EC50 ([17]; late current at 10 ms from peak, read-out: inhibition of fast inactivation pEC50 (converted)) was 41.7 nM. It also gave an IC50 [18] of 222 nM, an IC50 [19] of 15.1 nM and an IC50 [20] of 114 nM. For the same compound, the “selectivity for inhibiting activation over NaV1.3” value ([20]; NaV1.7 activation vs NaV1.3) was ~ 70 fold.
recombinant β/δ-TRTX-Pre1a (peptide) gave a percent inhibition of peak current amplitude by 1 μM Pre1a (weak), two-electrode voltage clamp, Xenopus oocytes [21] of 8.6%, an IC50 of inhibition of peak inward current, two-electrode voltage clamp, Xenopus oocytes [22] of 114 nM and an IC50 of inhibition of peak inward current, two-electrode voltage clamp, Xenopus oocytes [23] of 190 nM. For the same compound, the IC50 of inhibition of peak inward current (weak), two-electrode voltage clamp, Xenopus oocytes [24] was 8000 nM, the percent inhibition of peak current amplitude by 1 μM Pre1a (weak), two-electrode voltage clamp, Xenopus oocytes [25] was 16.5% and the EC50 of inhibition of inactivation (late current at 100 ms), two-electrode voltage clamp, Xenopus oocytes [26] was 45.5 nM. For the same compound, the EC50 of inhibition of inactivation (late current), as printed in the legend, Xenopus oocytes [27] was 45 nM.
